The record followed here is US20230057263A1.

The term EC50 (read off the curve) denotes the concentration at which the effect is half-maximal.

Experiment [1] concerns the target human CD3 epsilon (CD3ε) (human) (UniProt P07766). Briefly: flow cytometry on human T cells. (In general: In flow cytometry, cells or beads pass a laser one at a time.)
Experiment [2] deals with cynomolgus CD3-epsilon (cynomolgus) (UniProt Q95LI5). Briefly: Luminex bead assay, 1 ug/ml antibody; recombinant cyno CD3 (sinobiologicals) on beads [Cont.].
For experiment [3] the target is unchanged. Briefly: flow cytometry on cynomolgus T cells.
The target in the next experiment is vCD3e #p1 peptide. In words: Luminex bead assay, 1 ug/ml antibody [Cont.].
Experiment [4] concerns the target huCD3d/eCHO-E DT1331 (human) (UniProt P04234). In words: Luminex bead assay, 1 ug/ml antibody [Cont.].
The target in another experiment is BSA alone (bovine) (UniProt P02769). Briefly: Luminex bead assay, 1 ug/ml antibody [Cont.].
The target of a further experiment is T1, (H2N-…-OH) vCD3e #p2-BSA.
T1 sequence (peptide, conjugated to BSA): CPQYPGSEILWQHNDK
In words: Luminex bead assay, 1 ug/ml antibody [Cont.].

For another experiment, the target named is T2, (H2N-…-OH) vCD3e #p3-BSA.
T2 sequence (peptide, conjugated to BSA): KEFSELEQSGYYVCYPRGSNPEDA
Briefly: Luminex bead assay, 1 ug/ml antibody [Cont.].

Experiment [5] addresses biotinylated 15-mer peptide corresponding to the CD3ε N-terminus (human) (UniProt P07766). In words: Luminex bead assay, 1 ug/ml antibody [Cont.].

Sequence of cynomolgus CD3-epsilon (cynomolgus) (Q95LI5 22-198): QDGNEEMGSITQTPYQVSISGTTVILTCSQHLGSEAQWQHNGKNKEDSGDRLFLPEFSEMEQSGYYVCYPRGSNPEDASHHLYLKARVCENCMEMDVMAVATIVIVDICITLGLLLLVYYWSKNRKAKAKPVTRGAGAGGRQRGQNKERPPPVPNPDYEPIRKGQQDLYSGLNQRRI
Sequence of huCD3d/eCHO-E DT1331 (human) (P04234 22-105): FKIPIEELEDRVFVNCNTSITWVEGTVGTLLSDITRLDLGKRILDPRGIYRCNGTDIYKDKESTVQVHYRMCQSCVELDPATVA
Sequence of BSA alone (bovine) (P02769 25-607 limits assumed): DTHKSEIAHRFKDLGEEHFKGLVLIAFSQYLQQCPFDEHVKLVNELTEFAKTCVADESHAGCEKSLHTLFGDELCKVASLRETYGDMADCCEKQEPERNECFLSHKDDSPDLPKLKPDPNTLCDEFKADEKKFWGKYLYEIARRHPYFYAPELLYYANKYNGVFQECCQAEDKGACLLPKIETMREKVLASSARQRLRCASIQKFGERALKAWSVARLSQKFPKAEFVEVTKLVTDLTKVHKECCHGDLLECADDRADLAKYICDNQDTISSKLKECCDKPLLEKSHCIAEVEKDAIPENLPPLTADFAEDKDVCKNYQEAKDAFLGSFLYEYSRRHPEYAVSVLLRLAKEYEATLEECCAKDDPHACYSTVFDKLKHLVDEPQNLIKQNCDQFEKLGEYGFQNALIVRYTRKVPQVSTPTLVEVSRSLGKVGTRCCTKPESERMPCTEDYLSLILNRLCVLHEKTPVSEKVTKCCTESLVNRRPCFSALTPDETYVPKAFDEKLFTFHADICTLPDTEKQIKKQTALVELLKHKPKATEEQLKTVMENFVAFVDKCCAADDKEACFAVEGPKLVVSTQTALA

B1: SP34-2 (antibody, from a related filing, V domains shown)
VH: EVQLVESGGGLVQPKGSLKLSCAASGFTFNTYAMNWVRQAPGKGLEWVARIRSKYNNYATYYADSVKDRFTISRDDSQSILYLQMNNLKTEDTAMYYCVRHGNFGNSYVSWFAYWGQGTLVTVSA
VL: QAVVTQESALTTSPGETVTLTCRSSTGAVTTSNYANWVQEKPDHLFTGLIGGTNKRAPGVPARFSGSLIGDKAALTITGAQTEDEAIYFCALWYSNLWVFGGGTKLTVL
As to B1, the EC50 (read off the curve) in [1] came out at 0.2 nM; in experiment [3], 0.3 nM. Besides, the Luminex signal in [2] came out at 17200; in the experiment with vCD3e #p1 peptide, 17900; in experiment [4], 22100; with BSA alone (bovine) it was 398; in the experiment with (H2N-…-OH) vCD3e #p2-BSA, 184; with (H2N-…-OH) vCD3e #p3-BSA, 439. In [5], the Luminex signal worked out at 6.5.

B2: 6d59 (antibody, V domains shown)
VH: QVHLVESGGGVVQPGRSLRLSCAASGFKFRSYGMHWVRQAPGKGLEWVAIIWYDGSKRYYADSVKGRFTISRDNSKNTLYLQMSSLRAEDTAVYYCARDLITGTTDYWGQGTLVTVSS
VL: DVVMTQSPLSLPVTLGQPASISCRSSRSLVYSDGNTHLIWFQQRPGQSPRRLIYRVSNRVSGVPDRFSGSGSGTDFTLKISRVEAEDVGVYYCLQGAHWPYTFGQGTKLEIKR
The molecule B2 yielded a Luminex signal with (H2N-…-OH) vCD3e #p2-BSA of 238.
